Experimental findings from patent publication US20250073303A1, “TDP-43 Interference Peptides, Methods, and Uses Thereof” (The University of British Columbia, priority 2022, published 2025) are described below.

In one assay the test system is SH-SY5Y cells. The assay is described as follows: MTT assay of SH-SY5Y cells with ethacrynic acid challenge. The assay is classed as cell-based, human. The following applies: ethacrynic acid treatment compared with the control group. On the procedure:
Cell treatment and peptide blocking assay: Ethacrynic acid (EA) (Sigma, Saint Louis, MO) was dissolved in dimethyl sulfoxide (DMSO) at a stock concentration of 100 mM. For SH-SY5Y cells and HEK-293 cells, ethacrynic acid (EA) was added to the culture medium at 1:1000 to reach a final concentration of 100 μM. The treatment was maintained for 24 hours. For mouse cortical neurons, mature cortical neurons of 14 days in vitro (DIV) were used for experiments. Ethacrynic acid (EA) was added to neurons at a concentration of 20 μM for 5 hours. For peptide treatment in cell culture, the peptides were dissolved in double distilled water at a stock concentration of 10 mM and stored at −80° C. The combination of peptides A, B, C and D at equal concentration of 5 μM for each peptide and 20 μM in total was added into cultures of SH-SY5Y cells or HEK-293 cells one hour before ethacrynic acid treatment or pcDNA3.1-FLAG-CK1δ1-317 transfection. […]
MTT assay: The cell viability of SH-SY5Y cells after treatment of Ethacrynic acid (EA) was determined using the MTT assay (Sigma, Saint Louis, MO). Briefly, MTT solution was added to cells for 3-4 hours at 37° C. at the time when the cell viability was determined. […] On the second day, the plate was shaken for 15 minutes in the dark and absorbance at OD=595 nm was read using a plate reader (Envision 2103 Multilabel Reader, Perkin Elmer).

The next assay has as its target TDP-43 (Homo sapiens, UniProt Q13148). The assay is described as follows: Peptide blocking of TDP-43 phosphorylation and aggregation in HEK293 cells overexpressing pcDNA3.1-FLAG-CK1δ1-317 (western blotting). Set-up: Endogenous TDP-43 was highly phosphorylated by active CK-1δ (lacking its regulatory domain); endogenous in cells; host or cells: HEK293 cells transfected with pcDNA3.1-FLAG-CK1δ1-317. Particulars: HEK293, CK1δ1-317 overexpression. In kind it is cell-based. How it is done: Cell treatment and peptide blocking assay: Ethacrynic acid (EA) (Sigma, Saint Louis, MO) was dissolved in dimethyl sulfoxide (DMSO) at a stock concentration of 100 mM. For SH-SY5Y cells and HEK-293 cells, ethacrynic acid (EA) was added to the culture medium at 1:1000 to reach a final concentration of 100 μM. The treatment was maintained for 24 hours. For mouse cortical neurons, mature cortical neurons of 14 days in vitro (DIV) were used for experiments. Ethacrynic acid (EA) was added to neurons at a concentration of 20 μM for 5 hours. For peptide treatment in cell culture, the peptides were dissolved in double distilled water at a stock concentration of 10 mM and stored at −80° C. […] The primary cultured neurons were treated with peptide A, B, C and D mixture (equal concentration for each) at a final concentration of 5 μM and 10 μM.
The plasmids were transfected into HEK293 or SH-SY5Y cells using the Lipofectamine 2000 system. Before transfection, cells were plated at 80˜90% confluence and cultured in DMEM containing 10% fetal bovine serum (FBS). […]
Fractionation of cellular soluble and insoluble proteins: Cells or spinal cord tissue were harvested and lysed in 500 μl RIPA buffer [50 mM Tris-HCl pH 7.4; 150 mM NaCl; 1% NP-40; 0.5% Na-deoxycholate; 1 mM EDTA; 50 mM NaF; 1 mM PMSF and protease inhibitor] on ice. […] All the protein samples were further analyzed by Western immunoblotting. […]

TDP-43, sequence (Q13148 whole entry, the tested form may be a part): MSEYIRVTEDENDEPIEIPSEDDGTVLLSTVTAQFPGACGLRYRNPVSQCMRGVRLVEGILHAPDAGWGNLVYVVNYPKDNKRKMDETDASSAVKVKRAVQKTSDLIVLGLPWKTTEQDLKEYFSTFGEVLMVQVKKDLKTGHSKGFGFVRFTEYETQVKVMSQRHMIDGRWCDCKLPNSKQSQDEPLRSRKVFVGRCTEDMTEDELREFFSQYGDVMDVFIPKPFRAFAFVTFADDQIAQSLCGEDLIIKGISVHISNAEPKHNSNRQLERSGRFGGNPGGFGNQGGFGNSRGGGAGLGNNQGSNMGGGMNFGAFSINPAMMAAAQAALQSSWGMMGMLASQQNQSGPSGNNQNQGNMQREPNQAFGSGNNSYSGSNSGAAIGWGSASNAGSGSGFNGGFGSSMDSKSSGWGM

On to `C=C(CC)C(=O)c1ccc(OCC(=O)O)c(Cl)c1Cl` [ethacrynic acid], for which, in the assay with SH-SY5Y cells, the “cell death of SH-SY5Y cells” value is 69.97%.
Take “ppTDP: peptide covering the T25 site and S403 site of TDP-43, with a linker sequence between the blocking sequences and a TAT sequence (YGRKKRRQRRRDGTVLLGGGGFGSSMDSKSSG)”: the “TDP-43 phosphorylation in both the soluble fraction and insoluble fraction” value with TDP-43 (20 μM every 6 hours for a total of 48 hours) is listed as “efficiently blocked”. Also, in the assay with TDP-43 (40 μM every 6 hours for a total of 48 hours, compared with 20 μM), the “TDP-43 aggregation induced by CK1δ” value was “did not block TDP-43 aggregation induced by CK1δ more effectively”.
